For the assay, the target named is Isocitrate dehydrogenase (IDH) from B. longum (BlIDH) (Bifidobacterium longum subsp. infantis ATCC 15697). The assay can be described thus: SEC; gel filtration on a 10/300 Superdex 200 column, 50 mM NaH2PO4 and 150 mM NaCl at pH 7.2; standards ovalbumin, conalbumin, aldolase, ferritin, thyroglobulin; single symmetrical peak, native mass 83 kDa against about 45 kDa for the subunit.

One substance from article PMC4813160 can be followed below.

Usually stoichiometry N stands for the number of molecules, sites or subunits per partner or assembly.

Regarding “Isocitrate dehydrogenase (IDH) from B. longum (BlIDH) (enzyme)”, the stoichiometry N is 2.
